Measured values published in patent US20130330359A1 (AbbVie / Abbott, published 2013).

T1: RGMc antigen: amino acids 33-391 of RGMc followed by human Fc (human, UniProt Q6ZVN8 33-391)
T1 construct: also called RGMc-huFc; RGMc-Fc; not shown: human Fc
T1 sequence: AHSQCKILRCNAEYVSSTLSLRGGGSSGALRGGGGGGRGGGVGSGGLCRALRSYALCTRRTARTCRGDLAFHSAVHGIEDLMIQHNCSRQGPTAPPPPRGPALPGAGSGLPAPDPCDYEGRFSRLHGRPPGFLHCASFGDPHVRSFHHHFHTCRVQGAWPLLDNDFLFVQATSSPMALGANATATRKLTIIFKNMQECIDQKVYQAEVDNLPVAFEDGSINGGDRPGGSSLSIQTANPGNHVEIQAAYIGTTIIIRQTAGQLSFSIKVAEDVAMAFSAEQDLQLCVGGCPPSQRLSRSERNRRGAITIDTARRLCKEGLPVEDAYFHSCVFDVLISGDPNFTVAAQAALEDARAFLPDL

T2: carrier free RGMb (R&D Systems) (UniProt Q6NW40 46-413, limits assumed)
T2 construct: also called RGMb-CF
T2 sequence (looked up): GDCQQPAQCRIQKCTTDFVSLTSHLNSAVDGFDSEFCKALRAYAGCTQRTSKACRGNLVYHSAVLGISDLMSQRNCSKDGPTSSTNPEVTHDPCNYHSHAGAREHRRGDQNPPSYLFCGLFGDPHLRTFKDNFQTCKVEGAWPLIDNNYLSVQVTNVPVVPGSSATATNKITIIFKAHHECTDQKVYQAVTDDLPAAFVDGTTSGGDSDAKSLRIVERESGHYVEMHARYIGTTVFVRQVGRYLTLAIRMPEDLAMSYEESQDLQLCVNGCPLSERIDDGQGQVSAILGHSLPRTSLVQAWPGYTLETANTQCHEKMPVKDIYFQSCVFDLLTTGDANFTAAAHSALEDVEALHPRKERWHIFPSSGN

B1: 1A-2860-475 (antibody, V domains shown)
VH: DVLLQESGPDLVKPSQSLSLTCTVTGYSISSGYSWHWIRQFPGNKLEWMAYIHYTGNTNYNPSLKSRISITRDTSKNQFFLHLNSVTTEDTATYYCALFGLSGFWGQGTLVTVSA
VL: DVLMTQTPLSLPVSLGDQASISCRSSQTIVHSNGNTYLDWYLQKPGQSPKVLIYKVSNRFSGVPDRFSGSGSGTDFTLKISRVEAEDLGVYFCLQGSHVPWTFGGGTQLEIKR
notes: The parent line 1A-2860 and subclone 1A-2860-177 used in the assays are treated here as the same antibody; also called 1A-2860-177
B2: 1A-2989-187 (antibody, V domains shown)
VH: EVQLQQSGAELVRSGASVKLSCTASGFNIRDFYIHWVKQRPEQGLEWLGWIDPENGDIEYAPKFQGKATMTADTSSNTAYLQLNSLTSEDTALYYCNGNGYYLDYWGQGTTLTVSS
VL: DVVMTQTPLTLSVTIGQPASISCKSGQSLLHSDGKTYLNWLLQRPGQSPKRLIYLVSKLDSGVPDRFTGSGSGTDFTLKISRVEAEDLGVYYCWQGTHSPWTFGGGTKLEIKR
B3: 1B-3363-715 (antibody, V domains shown)
VH: DVQLQESGPDLVKPSQSLSLTCTVTGYSITSGYSWHWIRQFPGNKLEWMGYIHYSGNTDYNPSLKSRISFTRDTSKNQFFLQLNSVTTEDTATYFCAIGTGPWGQGTTLTVSS
VL: DVLMTQTPLSLPVSLGDQASISCRSSQNIVHSNGHTYLEWYLQKPGQSPKLLIYKVSNRFSGVPDRFSGSGSGTDFTLKISRVEAEDLGVYYCFQGSHVPWTFGGGTKLEIKR
notes: The parent line 1B-3363 and subclone 1B-3363-502 used in the assays are treated here as the same antibody; also called 1B-3363-502

Legend:
[1] = target: T1, RGMc antigen: amino acids 33-391 of …; test: chemiluminescence immunoassay: supernatant mAb captured on sheep anti-mouse IgG Fc, RGMc-huFc at 200 ng/mL, acridinium-labeled goat anti-RGMc detection
Experimental: Cell supernatant samples were analyzed for anti-RGMc antibodies by Chemiluminescence immunoassay (CIA). Sheep anti-mouse IgG Fc (Jackson Immunoresearch, West Grove, Pa.) was coated on 96 well micro-titer CIA plates (NUNC) at 5 ug/mL. After the capture reagent had been coated on the solid phase, it was removed and any open binding sites on the plates were blocked using a Fish gel/PBS (2% v/v) block solution. The wells were washed with distilled water and cell supernatants were added to the blocked plates and allowed to incubate at room temperature for at least one hour. The anti-mouse IgG Fc captures the anti-RGMc mouse antibody from the supernatant. Following the incubation, the supernatants were washed off using distilled water. A mouse/human IgG chimeric antibody (Abbott Laboratories) diluted in fish gel block to 5 ug/ml was added to each well and incubated for approximately 30 minutes at room temperature to block any captured mAbs that are specific for human IgG Fc portion of the immunogen. Following the incubation, the human IgG blocking solution was washed off using distilled water. RGMc-huFc antigen was then added to the plates at 200 ng/mL in fish gel block and incubated for 30 minutes at room temperature. Following this incubation, the antigen was washed from the plates using distilled water. Acridinium labeled goat anti-RGMc polyclonal antibody (R&D Systems, Minneapolis, Minn.) was diluted to 200 ng/ml in fish gel block, then added to the plates and allowed to incubate for 30 minutes at room temperature. The plates were washed with distilled water then processed on the Microbeta Jet instrument (Perkin Elmer, Waltham, Mass.). The Microbeta Jet adds Architect© Pre-Trigger and Trigger solutions (Abbott Laboratories). The plates are then read for flash chemiluminescence in luminescent counts per second (LCPS). […] The positive control (PC) used in this assay was spent medium from unfused splenocytes harvested from mouse #814 that were cultured for 7 to 10 days at 37° C.

[2] = target: T1, RGMc antigen: amino acids 33-391 of …; test: direct EIA: RGMc-huFc coated at 1.0 ug/mL; supernatant diluted 1:125; goat anti-mouse IgG Fc-HRPO
Experimental: A mouse:human chimeric antibody or RGMc-huFc was coated on the solid phase of micro-titer EIA plates at 1.0 ug/mL. After the antigen had been coated on the solid phase, it was removed and any open binding sites on the plates were blocked using BSA block solution. The wells were washed with distilled water. Cell supernatants and control reagents were added to the blocked plates and allowed to incubate at room temperature for at least one hour. The negative control was a purified mAb from a different antigen system. The positive control for human IgG was a purified anti-hu IgG mAb developed against another antigen containing human IgG Fc carrier protein. The RGMc positive control is Novus mab 1C12. Following this incubation, the solutions were removed from the plates and they were washed with distilled water. Goat anti-mouse IgG Fc-HRPO (Jackson Immunoresearch) diluted to approximately 200 ng/mL in block solution was added to the plates and allowed to incubate for 30 minutes at room temperature. The plates were washed with distilled water and o-phenylenediamine substrate (Abbott Laboratories) was used as the chromogen to generate signal. Plates were read at 492 nm and the results were analyzed.

[3] = target: T2, carrier free RGMb (R&D Systems); test: EIA on coated carrier-free RGMb (summary of specificity)
Experimental: Clones were then tested for cross-reactivity with RGMa and RGMb by EIA. Carrier free RGMa, RGMb, or RGMc (R&D Systems) was coated on the solid phase of micro-titer EIA plates at 0.5 ug/mL. After the antigen had been coated on the solid phase, it was removed and any open binding sites on the plates were blocked using fish gel block solution. The wells were washed with distilled water following this incubation. Cell supernatants and control reagents were added to the blocked plates and allowed to incubate at room temperature for at least one hour. The negative control was a purified mouse mAb from a different antigen system. The positive control for RGMa, RGMb, & RGMc was a goat anti-RGMa, RGMb, or RGMc polyclonal antibody (R&D Systems). Following this incubation, the solutions were removed from the plates and they were washed with distilled water. Donkey anti-Goat IgG-HRPO diluted to approximately 200 ng/mL in block solution was added to the plates with the positive control test samples and goat anti-mouse IgG-HRPO (Jackson Immunoresearch) diluted to approximately 200 ng/mL in block solution was added to the plates with the fusion #1 test samples. All plates were allowed to incubate for 30 minutes at room temperature. The plates were washed with distilled water and o-phenylenediamine substrate was used as the chromogen to generate signal. Plates were read at 492 nm and the results were analyzed.

Row | Binder | LCPS [1] | absorbance at 492 nm [2] | binding result [3]
1 | B1 | 6610 LCPS | 1.66 | no binding
2 | B2 | 2500 LCPS | 1.55 | no binding
3 | B3 | 5260 LCPS | 2.8 | no binding
